Measurements taken from a protein production outcome set (Wang et al. 2014).

Experiment: label from the status in PepcDB records

Sequence	protein production
MAHRTWGGRFGEGPDALAARFNASLAFDRALWREDLWQNRVHARMLHAVGLLSAEELEAILKGLDRIEEEIEAGTFPWREELEDVHMNLEARLTELVGPPGGKLHTARSRNDQVATDLRLYLRGAIDELLALLLALRRVLVREAEKHLDPLYVLPGYTHLQRAQPVLLAHWFLAYYEMLKRDAGRLEDAKERLNESPLGAAALAGTGFPIDRHFTARELGFKAPMRNSLDAVASRDFALEVLSALNIGMLHLSRMAEELILYSTEEFGFVEVPDAFATGSSIMPQKKNPDILELIRAKAGRVLGAFVGLSAVVKGLPLAYNKDLQEDKEPLLDALATYRDSLRLLAALLPGLKWRRERMWRAAEGGYTLATELADYLAEKGLPFREAHHVVGRLVRRLVEEGRALKDLTLEELQAHHPLFAEDALPLLRLETAIHRRRSYGGTAPEAVRERLEEAKKEVGLD	not failed
MAHSGDNHSSEFCMLRSLSASIGADPLLVQGAGGNTSIKQAGVLWIKASGTWLKNARDDEIMVPVALAPLLDAVSHRSPAAEAAGQFTLADLNPRQLRPSIETTVHALLPQKIVVHVHCVETISIAVQANAEALLEGRLRGLDWAFVPYRRPGLPLAQAIAERLKPATNVLVLGNHGLVVAADTVAEAALLLQRVTGLLARQPRPAPPPDLDALLRLAAGSDYRLPASTAAHAVATDLASCRIAASGSLYPDHVIFLGVGSVIAGPGENAAAVVARTAAAPTSILFPGKGVLMRREANAGAEAMARCLADVVARVDGAARVNYLSPKENAELLNWDAEKYRQQLNREGATLQLEHHHHHH	failed
MAIAFHTFLLQLLLFFFASFAEANDSRKTYLVQMKVGGHRYGSSSGHQELLGEVLDDDSYKESFTGFSASLTPRERQKLMSKTTTVSSRRREVLEVSRSRNLKLQTTRSWDFMNLTLKAERNPENESDLVVAVIDSGIWPYSELFGSDSPPPPGWENKCENITCNNKIVGARSYYPKKEKYKWVEEKSVIDVTGHGTHVASIVAGRKVEKAGYFGLAEGTMRGGVPNAKIAVYKTCWRVIRKNGREDSVCREDNILKAIDDAIADKVDIISYSQGFQFTPLQKDKVSWAFLRALKNGILTSAAAGNYANNGKFYYTVANGAPWVMTVAASLKDRIFETKLELEGEDKPIIVYDTINTFETQDSFYPLLNEKAPPESTRKRELIAERNGYSILSNYDEKDKGKDVFFEFAQINLLDEAIKEREKGAIVLGGKSYDFNESIKLQFPIASIFLDEQKKGKLWDYYKKDQSKERLAKIHKTEEIPREEGWVPTVAHLSSRGPNCDSFLANILKPDIAAPGLDIIAGWPENVKLSSDRPANDYRHLRFNIMSGTSMACPHATGLALYLKSFKRWSPSAIKSALMTTSSEMTDDDNEFAYGSGHLNATKVRDPGLVYETHYQDYIDYLCKLGYNTEKLRSHVGSDKIDCSKTEIDHDADLNYPTMTARVPLPLDTPFKKVFHRTVTNVNDGEFTYLREINYRGDKDFDEIIVDPPQLKFSELGETKTFTVTVTGISKRNWNKNRAFMTRNTWLTWTEKDGSRQVRSPIVIYSIKGPKACM	failed
MAIAPTIQPLPAPWVARMAAGEVIDSLAAVVRELCENSLDAGTQRLVIDLWPEQWRVRVADDGMGLSLENLQLAALAHTSSKLSPDRFTAEQLGFRGEALHSLARLGRLTIASRTADAAAGWQISYDIGGQPQVATPIAIAPGCIVEVQQLFQDWLERRQSQPSPAQQLRAVQQQIQNLVLAHPSITVQVTQNDRPWLAFAPVHHPQERLLQLLPNTSPADWRSQSLDLGSEGQLQVVVGLPDRCHRRRPDWVKVAVNGRVVRVSELEQAMIGALHRSLPRDRFPVVFAHLQVPPSQVDWHRHPAKAELFLQDLPVWCERIQEAIAQTLPLDPAEEIELPASTALLRVAETTGSYSESPSHLRAIAQVLNTYVLAEQGDSLWLIEQHIAHERVLFEQLQDDWQLVACQQPILLSKLSLEQRLQLDRLGITAEDFGEDLWAIRHIPAALAQREDLVEALLELSRGWDLSAAQAAIACRTAIRNGTLLYPEEQQTLIDRWQHCRQPRTCPHGRPIALVLPETSLARYFRRQWMIGRSHGLGDP	failed
MAICKVFRNYCKENDIQLHQANFSLSYDTNIPRQTGLSGSSAIVSAALNCLLDFYNVRHLIKVQVRPNIVLSAEKELGIVAGLQDRVAQVYGGLVHMDFSKEHMDKLGHGIYTPMDISLLPPLHLIYAENPSDSGKVHSMVRQRWLDGDEFIISSMKEVGSLAEEGRTALLNKDHSKLVELMNLNFDIRRRMFGDECLGAMNIEMVEVARRVGAASKFTGSGGAVVVFCPEGPSQVKLLEEECRKAGFTLQPVKIAPSCLNDSDIQTL	failed
